Data as given in PMC5709419, “Fine control of metal concentrations is necessary for cells to discern zinc from cobalt”.

B1: znuAPro (dsDNA)
DNA 1: TAGAATGTTATAATATCACATTTCACACATTCA
DNA 2: TGAATGTGTGAAATGTGATATTATAACATTCTA
B2: zntAPro (dsDNA)
DNA 1: CTTGACTCTGGAGTCGACTCCAGAGTGTATCCTC
DNA 2: GAGGATACACTCTGGAGTCGACTCCAGAGTCAAG

Tests used:
Zur [1] = target: T1, Zur (Salmonella enterica sv. Typhimurium …, UniProt A0A0H3NVF0 1-171); assay: fluorescence anisotropy; Zn(II)2-Zur (tightest two exchangeable sites filled); 10 nM probe, 60 mM NaCl, 240 mM KCl, 10 mM HEPES pH 7.0, anaerobic; temperature not stated; conditions: protein: recombinant; chain copies: 4; label: 5' HEX on strand 1; blunt
Zur [2] = target: T1, Zur; assay: fluorescence anisotropy; Zn(II)4-Zur, 1 uM ZnCl2; 10 nM probe, 60 mM NaCl, 240 mM KCl, 10 mM HEPES pH 7.0, anaerobic; temperature not stated; conditions: protein: recombinant; chain copies: 4; label: 5' HEX on strand 1; blunt
Zur [3] = target: T1, Zur; assay: fluorescence anisotropy; Co(II)-Zur, 1 uM CoCl2; 10 nM probe, 60 mM NaCl, 240 mM KCl, 10 mM HEPES pH 7.0, anaerobic; temperature not stated; conditions: protein: recombinant; chain copies: 4; label: 5' HEX on strand 1; blunt
ZntR [4] = target: T2, ZntR (Salmonella enterica sv. Typhimurium …, UniProt A0A0H3NSQ7 1-141); assay: fluorescence anisotropy; Zn(II)-ZntR, 1.2 eq ZnCl2; 10 nM probe, 60 mM NaCl, 240 mM KCl, 10 mM HEPES pH 7.0, anaerobic; temperature not stated; conditions: protein: recombinant; chain copies: 2; label: 5' HEX on strand 1; blunt
ZntR [5] = target: T2, ZntR; assay: fluorescence anisotropy; apo, 5 mM EDTA; 10 nM probe, 60 mM NaCl, 240 mM KCl, 10 mM HEPES pH 7.0, anaerobic; temperature not stated; conditions: protein: recombinant; chain copies: 2; label: 5' HEX on strand 1; blunt
ZntR [6] = target: T2, ZntR; assay: fluorescence anisotropy; Co(II)-ZntR, 5 uM CoCl2; 10 nM probe, 60 mM NaCl, 240 mM KCl, 10 mM HEPES pH 7.0, anaerobic; temperature not stated; conditions: protein: recombinant; chain copies: 2; label: 5' HEX on strand 1; blunt

Row | Binder | Kd (Zur [1]) | Kd (Zur [2]) | Kd (Zur [3]) | Kd (ZntR [4]) | Kd (ZntR [5]) | Kd (ZntR [6])
1 | B1 | 41 nM | 54 nM | 31 nM |  |  | 
2 | B2 |  |  |  | 650 nM | 1100 nM | 340 nM
